Experiment [1] addresses T1, human PD-L1 on CHO-K1 cells (W315-CHO-K1.hPro1.C11) (human, UniProt Q9NZQ7 19-290).
T1 construct: whole, on cells; also called cell surface human PD-L1; Human PD-L1-expressing CHO-K1 cell
Kind of experiment: FACS on human PD-L1 CHO-K1 cells. The method, then:
(§1) After washing with 1×PBS/1% BSA, the secondary antibody PE-labeled goat anti-human IgG was applied and incubated with cells at 4° C. for 1 hour. […] Human IgG1 and IgG4 isotype antibodies were used as negative control. The cells were then washed and resuspended in 1×PBS/1% BSA. MFI of the cells was measured by a flow cytometer (BD) and analyzed by FlowJo (version 7.6.1).

In experiment [2] the target is T2, cynomolgus monkey PD-L1 on 293F cells (W315-293F.cynoPro1.2A2) (cynomolgus monkey, UniProt G7PSE7 19-290).
T2 construct: whole, on cells; also called cell surface monkey PD-L1; cynoPD-L1
T2 sequence (G7PSE7 entry or part of it): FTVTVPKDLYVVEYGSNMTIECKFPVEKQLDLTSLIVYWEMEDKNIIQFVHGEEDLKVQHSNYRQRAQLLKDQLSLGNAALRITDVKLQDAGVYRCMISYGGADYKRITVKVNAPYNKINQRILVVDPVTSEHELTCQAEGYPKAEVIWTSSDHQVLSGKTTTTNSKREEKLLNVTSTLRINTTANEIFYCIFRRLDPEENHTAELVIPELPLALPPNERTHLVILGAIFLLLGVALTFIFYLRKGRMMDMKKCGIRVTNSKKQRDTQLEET
Kind of experiment: FACS on cynomolgus PD-L1 293F cells. The method, then:
as §1

Experiment [3] has as its target T1, human PD-L1 on CHO-K1 cells …. Kind of experiment: FACS affinity on human PD-L1 cells, quantitative beads. The method, then: (§2) Binding affinities of testing antibodies to cell surface human, cynomolgus and mouse PD-L1 were determined by flow cytometry on the engineering cell lines, respectively. The cells were transferred in to 96-well U-bottom plates (BD) at a density of 5×10⁴ cells/well. Antibodies to be tested were 1: 2-fold serially diluted in 1% BSA/1×PBS and incubated with cells at 4° C. for 1 hr. Then, the plates were centrifuged at 1500 rpm for 4 mins and the supernatant was discarded. The secondary antibody, Alexa647 conjugated goat anti-human IgG Fc (Jackson, Cat No. 109-605-098, Lot No. 121363), was added to re-suspend cells and incubated at 4° C. in the dark for 30 min. The cells were washed once and re-suspended in 100 μL 1% BSA/1×PBS, then measured by flow cytometry (BD Canto II) and analyzed by FlowJo. Fluorescence intensity was converted to bound molecules/cell based on the quantitative beads (Quantum™ MESF Kits, Bangs Laboratories). KD value was calculated by Graphpad Prism5.

Experiment [4] concerns the target T3, mouse PD-L1 on 293F cells (W315-293F.mPro1.C1) (mouse, UniProt Q9EP73 19-290).
T3 construct: whole, on cells; also called cell surface mouse PD-L1; Mouse PD-L1-expressing 293F cell
Kind of experiment: FACS affinity on mouse PD-L1 cells, quantitative beads. The method, then: as §2

Experiment [5] addresses T1, human PD-L1 on CHO-K1 cells …. Nature of the experiment: FACS competition: antibody titrated against 5 ug/mL human PD-1 ECD mFc on human PD-L1 CHO-K1 cells. The method, then: Human PD-L1 transfected W315-CHO-K1.hPro1.C11 cells were transferred into 96-well U-bottom plates at a density of 1×10⁵ cells/well. […] After washing with 1×PBS/1% BSA, the secondary antibody PE-labeled goat anti-mouse IgG was applied and incubated with cells at 4° C. for 1 hour. […] Human IgG1 and IgG4 isotype antibodies were used as negative control. The cells were then washed and resuspended in 1×PBS/1% BSA. MFI of the cells was measured by a flow cytometer (BD) and analyzed by FlowJo (version 7.6.1).

Experiment [6] concerns the target PD-L1 (target of the serum stability flow cytometry). Kind of experiment: flow cytometry binding to PD-L1 of AP3R2-1A3-z12-hIgG1 kept 0, 1, 4, 7 or 14 days in human serum at 37 C. The method, then: Fresh human serum was prepared from healthy donor by centrifugation. Testing antibody was mixed with serum and ensure the serum content >90% of total volume. The mix aliquots were incubated at 37° C. for 0 day, 1 day, 4 days, 7 days and 14 days, respectively. At the indicated time point the samples were quickly-frozen in liquid nitrogen and stored at −80° C. until analysis. The bindings to PD-L1 of the aliquots at above time points were evaluated by flow cytometry, respectively.
For orientation: In flow cytometry, cells or beads pass a laser one at a time.

The target in experiment [7] is T1, human PD-L1 on CHO-K1 cells …. Kind of experiment: FACS competition on human PD-L1 CHO-K1 cells: titrated W3156 antibody mixed with 0.5 ug/mL biotinylated BMK8.hIgG4 (m5), SA-PE [A]. The method, then:
Human PD-L1 expressing cells W315-CHO-K1.hPro1.C11 were transferred into 96-well U-bottom plates at a density of 1×10⁵ cells/well. […] Then the mixture was added to the cells in 96-well plates and incubated at 4° C. for 1 hour. After washing with 1×PBS/1% BSA, the secondary antibody SA-PE was applied and incubated with cells at 4° C. for 1 hour. The cells were then washed and resuspended in 1×PBS/1% BSA. MFI of the cells was measured by a flow cytometer and analyzed by FlowJo (version 7.6.1).

Usually EC50 stands for the concentration needed to bring the measured effect to its halfway point. As a reminder, the Kd is the constant that tells how readily two partners part at equilibrium. The IC50 is the concentration needed to halve the response being measured. The EC50 (read off the curve) is the concentration giving half of the maximal effect.

T1 sequence (Q9NZQ7 19-290): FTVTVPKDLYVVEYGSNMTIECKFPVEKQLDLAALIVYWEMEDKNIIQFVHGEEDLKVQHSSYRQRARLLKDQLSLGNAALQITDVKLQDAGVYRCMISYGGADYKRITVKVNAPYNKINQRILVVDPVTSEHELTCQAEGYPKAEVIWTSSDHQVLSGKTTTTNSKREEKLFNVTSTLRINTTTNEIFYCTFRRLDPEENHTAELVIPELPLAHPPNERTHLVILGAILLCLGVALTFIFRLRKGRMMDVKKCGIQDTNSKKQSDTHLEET
Chain of PD-L1 (target of the serum stability flow cytometry) (chain, as listed by the source): as the sequence (Q9NZQ7 19-290) above
T3 sequence (Q9EP73 19-290): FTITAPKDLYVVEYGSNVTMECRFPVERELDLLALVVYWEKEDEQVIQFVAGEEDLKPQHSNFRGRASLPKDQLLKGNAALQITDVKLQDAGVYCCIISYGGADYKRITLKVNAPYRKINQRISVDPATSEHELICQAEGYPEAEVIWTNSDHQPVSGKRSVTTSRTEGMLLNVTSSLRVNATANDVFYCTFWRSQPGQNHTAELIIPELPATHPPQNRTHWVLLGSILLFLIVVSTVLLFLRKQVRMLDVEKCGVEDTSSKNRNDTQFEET

B1: AP3R2-1A3-z12-hIgG1 (Fc fusion)
chain: EVQLVESGGGLVQPGGSLRLSCAASGHFSNLAVNWFRQAPGKERELVAGILWSGGSTFYADSVKGRFTISRGNAENMLYLQMNSLRAEDTAVYYCNTGTNWGQGTLVTVSS
notes: VHH-Fc (hIgG1) fusion of the humanized VHH; also called W3156-AP3R2-1A3-z12-hIgG1; W3156 antibody; not shown: Fc of human IgG1
As for B1, the values for the 50% effective concentration (EC50) in experiment [1] and in experiment [2] were 0.458 nM and 2.06 nM, respectively. The Kd in experiment [3] was found to be 0.26 nM; in experiment [4] it was 0.69 nM. The molecule further returned an IC50 in experiment [5] of 0.871 nM. The 50% effective concentration (EC50 (read off the curve)) in experiment [6] was roughly 0.7 nM. Besides, the “IC50 (read off the curve)” value in experiment [7] was roughly 3 nM.
